The target in assay [1] is TRX-APRIL (mouse) (UniProt Q9D777). Briefly: competitive SPR; elute 2.
For assay [2] the target is unchanged. Nature of the assay: competitive SPR; elute 1.
Assay [3] addresses human BAFF (UniProt Q9Y275). Briefly: competitive SPR; elute 1; interaction observed, curve not fitted adequately.
In assay [4] the target is human BAFF (UniProt Q9Y275). Briefly: competitive SPR; elute 2; interaction observed, curve not fitted adequately.
The target in assay [5] is human BAFF (UniProt Q9Y275). Briefly: competitive SPR; elute 2.
The target in assay [6] is human BAFF (UniProt Q9Y275). Briefly: competitive SPR; elute 1.

A word on the IC50: it is the concentration that gives 50% inhibition. Read a high IC50 as weaker potency.

Sequence of human BAFF (Q9Y275 82-285): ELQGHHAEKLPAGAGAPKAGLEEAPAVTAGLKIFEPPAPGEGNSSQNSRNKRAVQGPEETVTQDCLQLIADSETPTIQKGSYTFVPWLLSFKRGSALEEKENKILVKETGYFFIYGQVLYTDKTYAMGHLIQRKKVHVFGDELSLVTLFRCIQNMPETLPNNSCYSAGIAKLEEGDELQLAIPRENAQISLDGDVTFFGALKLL
Sequence of TRX-APRIL (mouse) (Q9D777 104-241): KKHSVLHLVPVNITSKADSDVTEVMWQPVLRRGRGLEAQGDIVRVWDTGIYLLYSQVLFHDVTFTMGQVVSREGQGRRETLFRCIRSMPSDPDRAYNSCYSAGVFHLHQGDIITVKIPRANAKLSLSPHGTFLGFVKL
Sequence of TACI_d1 (first CRD of TACI, residues 32-67) (O14836 32-67): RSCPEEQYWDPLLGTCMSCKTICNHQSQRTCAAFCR

For the substance “TACI_d1 (first CRD of TACI, residues 32-67)”, the IC50 in the assay with TRX-APRIL (mouse) [1] is 1 µM; with TRX-APRIL (mouse) [2], 3 µM; with human BAFF [3], greater than 0.1 µM; with human BAFF [4], greater than 0.1 µM.
For the substance “hTACI CRD1 LS (human TACI CRD1 R32-R67 with NHQSQRT replaced by GQHPKQ of CRD2)”, the IC50 with human BAFF [5] was 0.023 µM; with TRX-APRIL (mouse) [1], 0.129 µM; in the assay with human BAFF [6], 0.006 µM; with TRX-APRIL (mouse) [2] it was 0.012 µM.

For the origin of these results see patent US20080181886A1, “Polypeptides That Bind Baff And/Or April” (Genentech, Inc., priority 2004, published 2008).
